Laboratory results as given in US5969094A, “Anti-paramyxovirus screening method and vaccine” (Emory University, priority 1996, dated 1999).

Tests used:
[1] = tested on: HeLa-T4 cells; assay type: cell-based
[2] = target: T1, SN-F, fusion glycoprotein of Sendai virus (Sendai virus (SN), UniProt P04855); test: cell-based or functional assay
T1 sequence: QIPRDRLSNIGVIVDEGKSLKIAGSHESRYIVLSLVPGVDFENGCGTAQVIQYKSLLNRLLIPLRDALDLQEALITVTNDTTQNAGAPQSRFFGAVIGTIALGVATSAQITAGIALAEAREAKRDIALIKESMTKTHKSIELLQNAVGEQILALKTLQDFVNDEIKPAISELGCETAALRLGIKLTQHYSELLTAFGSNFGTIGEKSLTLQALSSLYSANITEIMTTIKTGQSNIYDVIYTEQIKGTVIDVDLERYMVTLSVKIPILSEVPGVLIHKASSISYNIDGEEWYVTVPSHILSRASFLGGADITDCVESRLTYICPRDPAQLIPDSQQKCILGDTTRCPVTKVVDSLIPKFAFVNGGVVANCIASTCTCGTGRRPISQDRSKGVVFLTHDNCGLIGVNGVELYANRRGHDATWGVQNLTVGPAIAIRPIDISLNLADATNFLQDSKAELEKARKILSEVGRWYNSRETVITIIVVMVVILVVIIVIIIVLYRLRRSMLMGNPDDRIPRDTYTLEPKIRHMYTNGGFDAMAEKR

[3] = tested on: guinea pig erythrocytes; assay type: cell-based
[4] = target: T2, SN-F (Sendai virus, UniProt P04855); assay type: cell-based
T2 sequence (P04855 117-565 limits assumed): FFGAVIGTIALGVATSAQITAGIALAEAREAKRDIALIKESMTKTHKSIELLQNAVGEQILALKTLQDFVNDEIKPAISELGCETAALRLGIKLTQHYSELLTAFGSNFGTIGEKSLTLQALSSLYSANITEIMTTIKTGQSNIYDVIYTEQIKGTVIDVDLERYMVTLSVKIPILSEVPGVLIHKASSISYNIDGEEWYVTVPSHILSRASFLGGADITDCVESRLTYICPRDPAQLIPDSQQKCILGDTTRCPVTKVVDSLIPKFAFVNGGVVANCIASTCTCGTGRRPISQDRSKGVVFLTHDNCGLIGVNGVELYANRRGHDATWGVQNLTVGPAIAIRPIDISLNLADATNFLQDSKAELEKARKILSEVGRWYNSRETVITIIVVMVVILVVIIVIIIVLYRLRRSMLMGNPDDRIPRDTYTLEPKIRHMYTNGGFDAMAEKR
T2 sequence (P04855 26-116 partner limits assumed): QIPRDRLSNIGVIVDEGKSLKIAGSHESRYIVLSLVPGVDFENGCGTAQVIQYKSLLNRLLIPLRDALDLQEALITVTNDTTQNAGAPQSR

B1: SN(44-140) chimeric HN protein (other)
chain: MEYWKHTNHGKDAGNELETSMATHGNKITNKITYILWTIILVLQWALSIATVIICIIISARQGYSMKEYSMTVEALNMSSREVKESLTSLIRQEVIARAVNIQSSVQTGIPVLLNKNSRDVIQMIDKSCSRQELTQHCESRITHDVGIKPLNPDDFWRCTSGLPSLMKTPKIRLMPGPGLLAMPTTVDGCVRTPSLVINDLIYAYTSNLITRGCQDIGKSYQVLQIGIITVNSDLVPDLNPRISHTFNINDNRKSCSLALLNTDVYQLCSTPKVDERSDYASSGIEDIVLDIVNHDGSISTTRFKNNNISFDQPYAALYPSVGPGIYYKGKIIFLGYGGLEHPINENAICNTTGCPGKTQRDCNQASHSPWFSDRRMVNSIIVVDKGLNSIPKLKVWTISMRQNYWGSEGRLLLLGNKIYIYTRSTSWHSKLQLGIIDITDYSDIRIKWTWHNVLSRPGNNECPWGHSCPDGCITGVYTDAYPLNPTGSIVSSVILDSQKSRVNPVITYSTSTERVNELAIRNKTLSAGYTTTSCITHYNKGYCFHIVEINHKSLDTFQPMLFKTEIPKSCS
Cell surface expression (%) [1]: 126.6%
Fusion activity (%), β-galactosidase production in the fusion dependent reporter gene activation assay [2]: 88.7 % of SN-HN wt with SN-F
HAD activity as percentage of wild type SN-HN hemadsorption [3]: comparable or higher HAD activity than that of SN-HN
hemadsorption observed under the microscope [3]: high levels of hemadsorption
Relative fusion promoting activity b/a [4]: 0.70

B2: SN(54-140) chimeric HN protein (other)
chain: MEYWKHTNHGKDAGNELETSMATHGNKITNKITYILWTIILVLLSIVFIIVLIICIIISARQGYSMKEYSMTVEALNMSSREVKESLTSLIRQEVIARAVNIQSSVQTGIPVLLNKNSRDVIQMIDKSCSRQELTQHCESRITHDVGIKPLNPDDFWRCTSGLPSLMKTPKIRLMPGPGLLAMPTTVDGCVRTPSLVINDLIYAYTSNLITRGCQDIGKSYQVLQIGIITVNSDLVPDLNPRISHTFNINDNRKSCSLALLNTDVYQLCSTPKVDERSDYASSGIEDIVLDIVNHDGSISTTRFKNNNISFDQPYAALYPSVGPGIYYKGKIIFLGYGGLEHPINENAICNTTGCPGKTQRDCNQASHSPWFSDRRMVNSIIVVDKGLNSIPKLKVWTISMRQNYWGSEGRLLLLGNKIYIYTRSTSWHSKLQLGIIDITDYSDIRIKWTWHNVLSRPGNNECPWGHSCPDGCITGVYTDAYPLNPTGSIVSSVILDSQKSRVNPVITYSTSTERVNELAIRNKTLSAGYTTTSCITHYNKGYCFHIVEINHKSLDTFQPMLFKTEIPKSCS
Cell surface expression (%) [1]: 131.5%
Fusion activity (%), β-galactosidase production in the fusion dependent reporter gene activation assay [2]: 55.3 % of SN-HN wt with SN-F
HAD activity as percentage of wild type SN-HN hemadsorption [3]: comparable or higher HAD activity than that of SN-HN
hemadsorption observed under the microscope [3]: high levels of hemadsorption
Relative fusion promoting activity b/a [4]: 0.42

B3: SN(27-140) chimeric HN protein (other)
chain: MEYWKHTNHGKDAGNELETSMATHGNWERSSKADTWLLILSFTQWALSIATVIICIIISARQGYSMKEYSMTVEALNMSSREVKESLTSLIRQEVIARAVNIQSSVQTGIPVLLNKNSRDVIQMIDKSCSRQELTQHCESRITHDVGIKPLNPDDFWRCTSGLPSLMKTPKIRLMPGPGLLAMPTTVDGCVRTPSLVINDLIYAYTSNLITRGCQDIGKSYQVLQIGIITVNSDLVPDLNPRISHTFNINDNRKSCSLALLNTDVYQLCSTPKVDERSDYASSGIEDIVLDIVNHDGSISTTRFKNNNISFDQPYAALYPSVGPGIYYKGKIIFLGYGGLEHPINENAICNTTGCPGKTQRDCNQASHSPWFSDRRMVNSIIVVDKGLNSIPKLKVWTISMRQNYWGSEGRLLLLGNKIYIYTRSTSWHSKLQLGIIDITDYSDIRIKWTWHNVLSRPGNNECPWGHSCPDGCITGVYTDAYPLNPTGSIVSSVILDSQKSRVNPVITYSTSTERVNELAIRNKTLSAGYTTTSCITHYNKGYCFHIVEINHKSLDTFQPMLFKTEIPKSCS
Cell surface expression (%) [1]: 75.6%
Fusion activity (%), β-galactosidase production in the fusion dependent reporter gene activation assay [2]: 79.7 % of SN-HN wt with SN-F
HAD activity as percentage of wild type SN-HN hemadsorption [3]: comparable or higher HAD activity than that of SN-HN
hemadsorption observed under the microscope [3]: high levels of hemadsorption
cell fusion / syncytium formation with SN-F observed by microscopy [4]: Syncytium formation was observed

B4: SN(140) chimeric HN protein (other)
chain: MDGDRGKRDSYWSTSPSGSTTKPASGWERSSKADTWLLILSFTQWALSIATVIICIIISARQGYSMKEYSMTVEALNMSSREVKESLTSLIRQEVIARAVNIQSSVQTGIPVLLNKNSRDVIQMIDKSCSRQELTQHCESRITHDVGIKPLNPDDFWRCTSGLPSLMKTPKIRLMPGPGLLAMPTTVDGCVRTPSLVINDLIYAYTSNLITRGCQDIGKSYQVLQIGIITVNSDLVPDLNPRISHTFNINDNRKSCSLALLNTDVYQLCSTPKVDERSDYASSGIEDIVLDIVNHDGSISTTRFKNNNISFDQPYAALYPSVGPGIYYKGKIIFLGYGGLEHPINENAICNTTGCPGKTQRDCNQASHSPWFSDRRMVNSIIVVDKGLNSIPKLKVWTISMRQNYWGSEGRLLLLGNKIYIYTRSTSWHSKLQLGIIDITDYSDIRIKWTWHNVLSRPGNNECPWGHSCPDGCITGVYTDAYPLNPTGSIVSSVILDSQKSRVNPVITYSTSTERVNELAIRNKTLSAGYTTTSCITHYNKGYCFHIVEINHKSLDTFQPMLFKTEIPKSCS
Cell surface expression (%) [1]: 68.1%
Fusion activity (%), β-galactosidase production in the fusion dependent reporter gene activation assay [2]: 44.6 % of SN-HN wt with SN-F
HAD activity as percentage of wild type SN-HN hemadsorption [3]: comparable or higher HAD activity than that of SN-HN
hemadsorption observed under the microscope [3]: high levels of hemadsorption
Relative fusion promoting activity b/a [4]: 0.66
cell fusion / syncytium formation with SN-F observed by microscopy [4]: lower level of syncytium formation

B5: SN(137) chimeric HN protein (other)
chain: MDGDRGKRDSYWSTSPSGSTTKPASGWERSSKADTWLLILSFTQWALSIATVIICIIISARQGYSMKEYSMTVEALNMSSREVKESLTSLIRQEVIARAVNIQSSVQTGIPVLLNKNSRDVIQMIDKSCSRQELTQHPPQRITHDVGIKPLNPDDFWRCTSGLPSLMKTPKIRLMPGPGLLAMPTTVDGCVRTPSLVINDLIYAYTSNLITRGCQDIGKSYQVLQIGIITVNSDLVPDLNPRISHTFNINDNRKSCSLALLNTDVYQLCSTPKVDERSDYASSGIEDIVLDIVNHDGSISTTRFKNNNISFDQPYAALYPSVGPGIYYKGKIIFLGYGGLEHPINENAICNTTGCPGKTQRDCNQASHSPWFSDRRMVNSIIVVDKGLNSIPKLKVWTISMRQNYWGSEGRLLLLGNKIYIYTRSTSWHSKLQLGIIDITDYSDIRIKWTWHNVLSRPGNNECPWGHSCPDGCITGVYTDAYPLNPTGSIVSSVILDSQKSRVNPVITYSTSTERVNELAIRNKTLSAGYTTTSCITHYNKGYCFHIVEINHKSLDTFQPMLFKTEIPKSCS
Fusion activity (%), β-galactosidase production in the fusion dependent reporter gene activation assay [2]: 0 % of SN-HN wt with SN-F
HAD activity as percentage of wild type SN-HN hemadsorption [3]: 27.5%
hemadsorption observed under the microscope [3]: lower activities
fusion promoting activity, percentage of wild type SN-HN [4]: did not show any significant fusion promoting activity

B6: SN(59-140) chimeric HN protein (other)
chain: MEYWKHTNHGKDAGNELETSMATHGNKITNKITYILWTIILVLLSIVFIIVLINSIKSSARQGYSMKEYSMTVEALNMSSREVKESLTSLIRQEVIARAVNIQSSVQTGIPVLLNKNSRDVIQMIDKSCSRQELTQHCESRITHDVGIKPLNPDDFWRCTSGLPSLMKTPKIRLMPGPGLLAMPTTVDGCVRTPSLVINDLIYAYTSNLITRGCQDIGKSYQVLQIGIITVNSDLVPDLNPRISHTFNINDNRKSCSLALLNTDVYQLCSTPKVDERSDYASSGIEDIVLDIVNHDGSISTTRFKNNNISFDQPYAALYPSVGPGIYYKGKIIFLGYGGLEHPINENAICNTTGCPGKTQRDCNQASHSPWFSDRRMVNSIIVVDKGLNSIPKLKVWTISMRQNYWGSEGRLLLLGNKIYIYTRSTSWHSKLQLGIIDITDYSDIRIKWTWHNVLSRPGNNECPWGHSCPDGCITGVYTDAYPLNPTGSIVSSVILDSQKSRVNPVITYSTSTERVNELAIRNKTLSAGYTTTSCITHYNKGYCFHIVEINHKSLDTFQPMLFKTEIPKSCS
Cell surface expression (%) [1]: 82.3%
Fusion activity (%), β-galactosidase production in the fusion dependent reporter gene activation assay [2]: 8.82 % of SN-HN wt with SN-F
HAD activity as percentage of wild type SN-HN hemadsorption [3]: comparable or higher HAD activity than that of SN-HN
hemadsorption observed under the microscope [3]: high levels of hemadsorption
Relative fusion promoting activity b/a [4]: 0.11
fusion promoting activity, percentage of wild type SN-HN [4]: 8.8%
